Reference: the DeepSol protein solubility set

Assay: soluble on expression in E. coli; label from the status in PepcDB or PDB records
With “MGSDKIHHHHHHMNDKEFGQRVRQLRESASMTREQFCDDELELSVRQLTRIEAGASKPTFSKIQYIATRLGMGLYELMPDYVSLPERYSKLKFDVLRTPTYGNEDLAEKRDAMMTEIYDDYYDELPEEEKIVVDTLCSLFDVLDTDSQEYGKEILDDYLHQSYHRSKLSINDLMILRLFIEHCQLEDLSVGTSNYALFTDLIEKLPQSIYDVHSESLFIVRDLFLAIVRILFSKELYNHIPVYIEKIENIMELSQDFQKKPILNLVKWKYELKVQHNHEIAERYYNEAITFASLLNQFHLKEKLQMEWEKDTQSLKR” the “soluble on expression in E. coli” value was “not soluble”. In the case of “MGLLTNDIIEESAWEALEKSILYYKGRPVGTVAAFDASVEALNYDQCFVRDFVSSALIFLIKGKTDIVRNFLEETLKLQPKDRQLDAYKPGRGLIPASFKVVSDNGEEYLEADFGEHAIARVTPVDSCLWWILLLRAYVVASKDFSLAYQPEFQTGIRLIMEICLANRFDMYPTLLVPDGACMIDRRLGIYGHPLELQVLFYAALRAAREMLICQGNQDVVEAIDNRLPLLCAHIRQHYWIDINRLNAIYRFKSEEYGKAAVNLFNIYVDSIPYYELDKWLPKKGGYLAGNVGPSQLDTRFFALGNLMAIISDLATEEQSQAIMTLIEDRWEDLVGDMPMKICYPALENEEYRIVTGCDPKNIPWSYHNAGSWPVLMWMLAAASVKAGKPYIAGKAIEIAQARLLEDEWPEYYDGKKGRLIGKQARKYQTWTIAGFLLAAELMKNPSLLSLISFDKLPSELVSRACEFEIGSVDASISRLEHHHHHH”, the “soluble on expression in E. coli” value is reported as “soluble”. In the case of “MDQFECINVADAHQKLQEKEAVLVDIRDPQSFAMGHAVQAFHLTNDTLGAFMRDNDFDTPVMVMCYHGNSSKGAAQYLLQQGYDVVYSIDGGFEAWQRQFPAEVAYGA”, the “soluble on expression in E. coli” value is reported as “soluble”. In the case of “VPEKFKLSTALMDVLGIEVETRPRIIAAIWHYVKARKLQNPNDPSFFNCDAALQKVFGEEKLKFTMVSQKISHHLSPPPP”, the “soluble on expression in E. coli” value is reported as “soluble”. With “MGSDKIHHHHHHMKFTINRTLFIEKLEKASATVDVKNPMPALQGVLLDCNSKGMILMGSDGTETVTLVTRFNVNSGDCTEPGKVLFAAAPVLKTIKKFKSEFIGLEHKNNELKIVESKKKQFSFCTMDHEEYPEIKIEAGEDWISLSQEQFVSMANGTLHAIPAMDTRKILTGVNLKSVDDKFFSIATDAHRLARLHFDCTKITIAKDGEVVLPIKSLKTALKLFNRETNLQLKLISDTQLLIRGESIIYQSRLLAGTYPDTARMVPDEFKSEIQLSREEFKNTLEQLSAFSSLIVLTSEGKESIHLKPQNSQVGTASVEIPCNQVEAFTLACNVEYLLQALQTITSETIAIKMISNQRPIVVVGAEDTTHSNLQLILPVRV” the “soluble on expression in E. coli” value was “not soluble”. For “MGSDKIHHHHHHMSNTAQLITPSPIGLIADITELFEKTFAHFSRTLKVNADDIPEETMSFHTWSSIDNFPTLIQKYRDEYYGDNDLKPNDKALYSLWSQWYFGLIIPPMMLLLIEYPQTIDTHHKNFKVLFHHSGRPEVVYYQLKWQSQDPGTLLERYYLLLNHHVIPIAEKIESYQGINGRLLWNNIGYLMFWYLGEFKGRLGDDLYQSIINGLFMELSLPNGQDNPLYRTVMLRNGTLQRRSCCQRNKLPGVRSCHDCPLEKPPLNLIS”, the “soluble on expression in E. coli” value was “not soluble”. For “MGLIKENRMDSLKVSDYMTLQAVTFSPDMSLSAALEKVVRSDNMGGPVIDAQRHVIGFLSEQDLLDKLVHASYHCQDAHLVSDCMHKEVLSVAPETSIIELAAMMKVGKPKMYPVVSDGKLVGVITRRDVLRALSKTLTNCFQHPV”, the “soluble on expression in E. coli” value was “not soluble”. In the case of “SASSEVARHLLFQSHMATKTTCMSSQGSDDEQIKRENIRSLTMSGHVGFESLPDQLVNRSIQQGFCFNILCVGETGIGKSTLIDTLFNTNFEDYESSHFCPNVKLKAQTYELQESNVQLKLTIVNTVGFGDQINKEESYQPIVDYIDAQFEAYLQEELKIKRSLFTYHDSRIHVCLYFISPTGHSLKTLDLLTMKNLDSKVNIIPVIAKADTVSKTELQKFKIKLMSELVSNGVQIYQFPTDDDTIAKVNAAMNGQLPFAVVGSMDEVKVGNKMVKARQYPWGVVQVENENHCDFVKLREMLICTNMEDLREQTHTRHYELYRRCKLEEMGFTDVGPENKPVSVQETYEAKRHEFHGERQRKEEEMKQMFVQRVKEKEAILKEAERELQAKFEHLKRLHQEERMKLEEKRRLLEEEIIAFSKKKATSEIFHSQSFLATGSNLRKDKDRKNSNFL”, the “soluble on expression in E. coli” value is reported as “not soluble”. With “MNRARDWMRQAERDLEHAQKSLELGHWEWACFAAHQAAEKALKAVYFALGAEAFGHALTHLLAGLHERLNLTPELRRCALVLDRLYIPTRYPDSWEAGAPLDYYGEEEARDALLCAGEILRFGQSVLAGPGETSSGP” the “soluble on expression in E. coli” value was “soluble”.
